The assay deals with human α-thrombin (human, UniProt P00734 364-622). Nature of the assay: ELISA. Conditions: both partners purified.

Ends that are not written are not given here.

Take Ac-GDFEPIPEDAYDE (not fully specified (C-terminus)) [H6HV3_(54-66)G6 synthetic peptide]: half-maximal inhibition (IC50) was put at 1400 nM. In the case of Ac-GDFEPIPEDAYDE [H6HV3_(54-66) synthetic peptide] it was 740 nM.
